Results reported in patent publication US9575076.
pKd: −log10 of the molar value.

Assays:
[1] = target: Follicle Stimulating Hormone (FSH) (UniProt P01215); experiment: i-STAT sandwich cartridge, 0.4 mIU/L TSH plus FSH, signal gain over TSH alone; capture ME130, detection 5409
[2] = target: Thyroid Stimulating Hormone (TSH) (UniProt P01215); experiment: FRET competition on Alexa488-labelled antigen; competitor BHQ-labelled ME130
[3] = target: Thyroid Stimulating Hormone (TSH) (UniProt P01215); experiment: i-STAT sandwich cartridge with TSH; capture beads ME130, detection conjugate 5409
[4] = target: Chorionic Gonadotropin (CG) (UniProt P01215); experiment: i-STAT sandwich cartridge, 0.4 mIU/L TSH plus CG, signal gain over TSH alone; capture ME130, detection 5409
[5] = target: Thyroid Stimulating Hormone (TSH) (UniProt P01215); experiment: FRET competition on Alexa488-labelled antigen; competitor BHQ-labelled T25C
[6] = target: Thyroid Stimulating Hormone (TSH) (UniProt P01215); experiment: i-STAT sandwich cartridge with TSH; capture beads ME130, detection conjugate M4
[7] = target: Thyroid Stimulating Hormone (TSH) (UniProt P01215); experiment: FRET competition on Alexa488-labelled antigen; competitor BHQ-labelled 414B
[8] = target: Thyroid Stimulating Hormone (TSH) (UniProt P01215); experiment: FRET competition on Alexa488-labelled antigen; competitor BHQ-labelled 5409
[9] = target: Thyroid Stimulating Hormone (TSH) (UniProt P01215); experiment: FRET quenching titration, BHQ-10 antibody and Alexa Fluor 488 antigen
[10] = target: Chorionic Gonadotropin (CG) (UniProt P01215); experiment: as above
[11] = target: Follicle Stimulating Hormone (FSH) (UniProt P01215); experiment: as above
Luteinizing Hormone (LH) [12] = target: Luteinizing Hormone (LH) (UniProt P01215); experiment: as above
Luteinizing Hormone (LH) [13] = target: Luteinizing Hormone (LH) (UniProt P01215); experiment: i-STAT sandwich cartridge, 0.4 mIU/L TSH plus LH, signal gain over TSH alone; capture ME130, detection 5409
[14] = target: Thyroid Stimulating Hormone (TSH) (UniProt P01215); experiment: FRET competition on Alexa488-labelled antigen; competitor BHQ-labelled TSH Ab 544
[15] = target: Thyroid Stimulating Hormone (TSH) (UniProt P01215); experiment: i-STAT sandwich cartridge with TSH; capture beads ME130, detection conjugate TSH Ab 544
[16] = target: Thyroid Stimulating Hormone (TSH) (UniProt P01215); experiment: FRET competition on Alexa488-labelled antigen; competitor BHQ-labelled M4
[17] = target: Thyroid Stimulating Hormone (TSH) (UniProt P01215); experiment: i-STAT sandwich cartridge with TSH; capture beads ME130, detection conjugate T25C
[18] = target: Thyroid Stimulating Hormone (TSH) (UniProt P01215); experiment: i-STAT sandwich cartridge with TSH; capture beads M4, detection conjugate 5409
[19] = target: Thyroid Stimulating Hormone (TSH) (UniProt P01215); experiment: i-STAT sandwich cartridge with TSH; capture beads M4, detection conjugate T25C
[20] = target: Thyroid Stimulating Hormone (TSH) (UniProt P01215); experiment: i-STAT sandwich cartridge with TSH; capture beads M4, detection conjugate ME130
[21] = target: Thyroid Stimulating Hormone (TSH) (UniProt P01215); experiment: i-STAT sandwich cartridge with TSH; capture beads M4, detection conjugate TSH Ab 544
[22] = target: Follicle Stimulating Hormone (FSH) (UniProt P01215); experiment: i-STAT sandwich cartridge, 0.4 mIU/L TSH plus FSH, signal gain over TSH alone; capture 5409, detection T25C
[23] = target: Thyroid Stimulating Hormone (TSH) (UniProt P01215); experiment: i-STAT sandwich cartridge with TSH; capture beads 5409, detection conjugate TSH Ab 544
Luteinizing Hormone (LH) [24] = target: Luteinizing Hormone (LH) (UniProt P01215); experiment: i-STAT sandwich cartridge, 0.4 mIU/L TSH plus LH, signal gain over TSH alone; capture 5409, detection T25C
[25] = target: Chorionic Gonadotropin (CG) (UniProt P01215); experiment: i-STAT sandwich cartridge, 0.4 mIU/L TSH plus CG, signal gain over TSH alone; capture 5409, detection ME130
[26] = target: Chorionic Gonadotropin (CG) (UniProt P01215); experiment: i-STAT sandwich cartridge, 0.4 mIU/L TSH plus CG, signal gain over TSH alone; capture 5409, detection T25C
[27] = target: Thyroid Stimulating Hormone (TSH) (UniProt P01215); experiment: i-STAT sandwich cartridge with TSH; capture beads 5409, detection conjugate ME130
[28] = target: Thyroid Stimulating Hormone (TSH) (UniProt P01215); experiment: i-STAT sandwich cartridge with TSH; capture beads 5409, detection conjugate T25C
[29] = target: Follicle Stimulating Hormone (FSH) (UniProt P01215); experiment: i-STAT sandwich cartridge, 0.4 mIU/L TSH plus FSH, signal gain over TSH alone; capture 5409, detection ME130
Luteinizing Hormone (LH) [30] = target: Luteinizing Hormone (LH) (UniProt P01215); experiment: i-STAT sandwich cartridge, 0.4 mIU/L TSH plus LH, signal gain over TSH alone; capture 5409, detection ME130
[31] = target: Thyroid Stimulating Hormone (TSH) (UniProt P01215); experiment: i-STAT sandwich cartridge with TSH; capture beads 5409, detection conjugate M4
[32] = target: Thyroid Stimulating Hormone (TSH) (UniProt P01215); experiment: i-STAT sandwich cartridge with TSH; capture beads T25C, detection conjugate 5409
[33] = target: Thyroid Stimulating Hormone (TSH) (UniProt P01215); experiment: i-STAT sandwich cartridge with TSH; capture beads T25C, detection conjugate 414B
[34] = target: Chorionic Gonadotropin (CG) (UniProt P01215); experiment: i-STAT sandwich cartridge, 0.4 mIU/L TSH plus CG, signal gain over TSH alone; capture T25C, detection 5409
[35] = target: Thyroid Stimulating Hormone (TSH) (UniProt P01215); experiment: i-STAT sandwich cartridge with TSH; capture beads T25C, detection conjugate ME130
[36] = target: Follicle Stimulating Hormone (FSH) (UniProt P01215); experiment: i-STAT sandwich cartridge, 0.4 mIU/L TSH plus FSH, signal gain over TSH alone; capture T25C, detection 5409
Luteinizing Hormone (LH) [37] = target: Luteinizing Hormone (LH) (UniProt P01215); experiment: i-STAT sandwich cartridge, 0.4 mIU/L TSH plus LH, signal gain over TSH alone; capture T25C, detection 5409
[38] = target: Thyroid Stimulating Hormone (TSH) (UniProt P01215); experiment: i-STAT sandwich cartridge with TSH; capture beads T25C, detection conjugate TSH Ab 544
[39] = target: Thyroid Stimulating Hormone (TSH) (UniProt P01215); experiment: i-STAT sandwich cartridge with TSH; capture beads T25C, detection conjugate M4

Substance | relative fluorescence [2] [normalized] | relative fluorescence [5] [normalized] | relative fluorescence [7] [normalized] | relative fluorescence [8] [normalized] | pKd [9] | pKd [10] | pKd [11] | pKd (Luteinizing Hormone (LH) [12]) | relative fluorescence [14] [normalized] | relative fluorescence [16] [normalized] | also measured
AbCAM ME-130 mouse monoclonal antibody | 1 | 0.88 | 0.99 | 0.82 | 10.40 | 7.35 | 7.15 | 7.27 | 0.82 | 0.77 | FSH CR (%) [1]: 3.9%; electrochemical current [3]: 54.7 nA; CG CR (%) [4]: 11.8%; electrochemical current [6]: 50.5 nA; LH CR (%) (Luteinizing Hormone (LH) [13]): 11.1%; electrochemical current [15]: 10.8 nA; electrochemical current [17]: -0.1 nA
Fitzgerald 10C-CR2151M4 mouse monoclonal antibody | 0.76 | 0.74 | 0.9 | 0.94 | 9.74 | 6.26 | 6.68 | 6.52 | 0.98 | 1 | electrochemical current [18]: 20.7 nA; electrochemical current [19]: 22.5 nA; electrochemical current [20]: 39.9 nA; electrochemical current [21]: 0 nA
TSH capture mouse monoclonal antibody Biospacific Cat#5409 SPTNE-5 | 0.78 | 0.78 | 0.88 | 1 | 10.00 | 6.30 | 6.00 | 6.00 | 0.93 | 0.9 | FSH CR (%) [22]: 0.65%; electrochemical current [23]: 1.41 nA; LH CR (%) (Luteinizing Hormone (LH) [24]): 3.76%; CG CR (%) [25]: 0.78%; CG CR (%) [26]: 0.96%; electrochemical current [27]: 53.6 nA; electrochemical current [28]: 34.6 nA; FSH CR (%) [29]: 2.43%; LH CR (%) (Luteinizing Hormone (LH) [30]): 10.1%; electrochemical current [31]: 15.2 nA
signaling mouse monoclonal antibody Fitzgerald Cat#10-T25C | 0.97 | 1 | 0.97 | 0.95 | 10.10 | 7.40 | 6.52 | 7.46 | 0.97 | 0.92 | electrochemical current [32]: 49.7 nA; electrochemical current [33]: 0.82 nA; CG CR (%) [34]: 13.7%; electrochemical current [35]: 0.68 nA; FSH CR (%) [36]: 6.25%; LH CR (%) (Luteinizing Hormone (LH) [37]): 9.89%; electrochemical current [38]: 0.83 nA; electrochemical current [39]: 40.9 nA
